Source: the DeepSol protein solubility set

Experiment: soluble on expression in E. coli; label from the status in PepcDB or PDB records

Sequence	soluble on expression in E. coli
MGEEKKKRTVEITIGGKLRSFDIDDPVLPDWVEEKKLSAGNFPYDKKMKREDYDATLEALQVELVKVQFWLQATGKRVMAVFEGRDAAGKGGAIFATHAYLNPRYARVVALTKPTETERGQWYFQRYISHFPTAGEFVLFDRSWYNRAGVEPVMGFCTPDEHKRFLKETPRLEKMLVHDDIHLFKFWLDIGRETQIERFHDRRQSPLKCWKLSDMDIAALTKWDDYTQKRDEMLEKTHTDAAPWTVVRANDKRRARVNLIRHILLALDYEGKDRQAIGEIDDKILGSGPDFLK	not soluble
AIAKPTNKAQDDDAVFALSTEVNHKLDLHQSSAEALRLAGVYTRQSCVLDLYHGYRSDDEDTEPDEEDGRLQTVREYHENGMLKLMRTFVRRLRRDATDPTAESSYYDRVVEEKHYDPSGICRVDMHFALGQPYLYRKHYYPNNRLKSEKVFFVEDEETMRARKVGHWRTYYENGNIQSEIIYNKDGVRCGFCKRYAIDGAIEWVKDYTREQEERLQAFNAKRGNLDLTVTDAARVLGLEGDWCSHVVNRTFRSKCAPLHPDWRRTAGDKAGETWEEEQRTEAFIRLSRAREVLLKFLETHPRECSCERGGA	soluble
MGSDKIHHHHHHMSLLKVQNLTKEFPLGFFGKERLKAVDDVSFEIERSRIVSLIGESGSGKTTVGKLILKLIRPSSGQILLNGRDITQIKGRELREYYRKVQGVFQDPFSSFNPIYKIDRVLDMVFEEFFPDTPASERRTKMEEVIASVGMNPREILGKYPHQLSGGQLQRILIARTLLLNVELLIADEIISMLDASTRVDILNLLGDLRERGMSVIFITHDLSLGYYISDETFIMYRGNIVEMGDTEKVFHNPIHPYTKMLLESVPEIDRKWDLSKRFIPELVSSSNAPCKYYDRCPIRDERCLVQKPAMVEVEENHKVLCLKAGD	not soluble
MGSSHHHHHHSSGLVPRGSHMVHAFPHGTTATPTAIAVPPSLRLPVIEAAFPRQLHPYWPKLQETTRTWLLEKRLMPADKVEEYADGLCYTDLMAGYYLGAPDEVLQAIADYSAWFFVWDDRHDRDIVHGRAGAWRRLRGLLHTALDSPGDHLHHEDTLVAGFADSVRRLYAFLPATWNARFARHFHTVIEAYDREFHNRTRGIVPGVEEYLELRRLTFAHWIWTDLLEPSSGCELPDAVRKHPAYRRAALLSQEFAAWYNDLCSLPKEIAGDEVHNLGISLITHHSLTLEEAIGEVRRRVEECITEFLAVERDALRFADELADGTVRGKELSGAVRANVGNMRNWFSSVYWFHHESGRYMVDSWDDRSTPPYVNNEAAGEK	soluble
ANSKLTSDFDNPRWIGRHKHMFNFLDVNHNGKISLDEMVYKASDIVINNLGATPEQAKRHKDAVEAFFGGAGMKYGVETDWPAYIEGWKKLATDELEKYAKNEPTLIRIWGDALFDIVDKDQNGAITLDEWKAYTKAAGIIQSSEDCEETFRVCDIDESGQLDVDEMTRQHLGFWYTMDPACEKLYGGAVP	soluble
MGSDKIHHHHHHFKLLAADGDSLLVGARNAVYNLSLSTLSVNHKIDWKPPAEHIEECIMKGKSKTDCQNYIRVLARKSAGVSLVCGTHAFSPKCREYTVTEFGIRNTRQFDGQGISPYDPKHNSSALYVPGTNQLFVATVTDFVGNDALIYRKTIDETPSSKSAANIRTQSYDARVLNAPNFVATFAYKEHVYFWFREIASEAIDNNEEPQIYARVARVCKNDKGGARPANERWTSYLKARLNCSLPSGSSPFYFNELKAVSDPIDAGNNNHVVYTVFSTPDSDVRMSAVCKFSMKKIREEFDNGTFKHQNNAQSMWMAFNRNEVPKPRPGSCSPDSTKLPENTVSFILHHPLLHRPIPSVAAPLLVEGADRADLTQITVLPRVRAVGGHNYDILFIGTSDGKVLKVVEVDGNATVIQSATVFQRGVPIVNLLTTKES	not soluble
MRKIGIIGGTFDPPHYGHLLIANEVYHALNLEEVWFLPNQIPPHKQGRNITSVESRLQMLELATEAEEHFSICLEELSRKGPSYTYDTMLQLTKKYPDVQFHFIIGGDMVEYLPKWYNIEALLDLVTFVGVARPGYKLRTPYPITTVEIPEFAVSSSLLRERYKEKKTCKYLLPEKVQVYIERNGLYESLAAALEHHHHHH	soluble
FDAIAGSISDAVVTIDADSEVVYANDEAVELTGYDRKELVGDDFAKVIPEHLRSAHFEGLDRYLRTGNRNVDWDYLELPLVTAAGDQLTVAVSFGDFERNGQWFCTGVLRDIS	not soluble
MKFRSTALVKGFRQSAPYVNAHRDKTVVIMLGGEAIADPNFANIVNDIALLNSLGLRIVIVYGTRPQMRSLLKQTEHHAPFHKGIRITDEQTLELVKQIAGQLQLDITARLSMSLNNTPMAGAQINVISGNFVIAQPLGVDDGIDYCHSGRVRRIDTQGINRMLDQQSIVLLGPVASSVTGECFNLLSEDVATQLAIRLNADKLIGFCSEQGVLNEKGQILAELFPSEAEEILQRLEKELTPENGKLTGTMRFLKGAISACKAGVPRSHLISYKEDGALIQELFSFDGIGTQVVMASSEQVRDAEIDDIGGILDLIRPLEEEGILVRRSREQLEQEIAQFTIIEKDGLVIACAALYPFPEEGMAEMGCVAVHPDYRDGDRGVTLLNRLRSKAKQFKLSQLFVLTTRSLHWFREQGFIEVDVSHLPIKKQKLYNFQRKSKILVLKGL	not soluble
MGSDKIHHHHHHMYETFMKRAIELAKKGLGRVNPNPPVGAVVVKDGRIIAEGFHPYFGGPHAERMAIESARKKGEDLRGATLIVTLEPCDHHGKTPPCTDLIIESGIKTVVIGTRDPNPVSGNGVEKFRNHGIEVIEGVLEEEVKKLCEFFITYVTKKRPFVALKYASTLDGKIADHRGDSKWITDKLRFKVHEMRNIYSAVLVGAGTVLKDNPQLTCRLKEGRNPVRVILDRKGVLSGKVFRVFEENARVIVFTESEEAEYPPHVEKALSDCSVESILRNLYERDIDSVLVEGGSKVFSEFLDHADVVFGFYSTKIFGKGLDVFSGYLSDVSVPPKFKVVNVEFSDSEFLVEMRPCSRE	soluble
MIELYSNAKLPTEFGLFRIYTFVNDENKDHAVIVRGDPRGKENVPLRIHSECLTGDVLGSLRCDCRDQLIQSLRYLGRQEYGMLIYLRQEGRGIGLLNKIKAYSLQDMGADTVEANLKLGLPVDSRNYSFAAEVLRYFEIKSIYIMTNNPEKIKSLIESGINVKGRIPIFSDPTPYDKFYLETKKTKLGHEIENILEHHHHHH	soluble
MGSDKIHHHHHHMRPLIFAYANAAASIAADSWNLVMGEDNPFCRHEYLLSLEQSLSACDATGWQACHLCVFDASGMGLTQEQNTDGIVSTRDAVHFIDLPLLAVMPLYQKSHSYGEYVFDWAWAQAYEHHGLAYYPKLLNAIPFTPVLGRRIGLSPRLSADEAQQLSALVFTCLNRQLMDAHASISSWHCLFVSPSQQSLFEPPLSVKQQTLQHLPHNPSLRRLSTQFHWYNRGYTSFEAFLAALNSRKRKNIVKERAQLQTHGLRFEFVAGNVITSQQWQRFIECYQLTYLKRSGHRGYLTPVFFQMIAERLAEQIVLLVVSDATGEMIAGALYFTGRNELGQRCLFGRYWGSTLELEGLHFEACYYQGIEYCIAQDIEVFDAGAQGEHKVLRGFEPVAIYSYHNIAHPEFKLAIAHFTEEEAVQMEVYMQQMREVLPYKKAP	not soluble
MSLTESARIDGVSLYEIVIPMKIPFQISSGTCYTRRSLVVEIREGDLFGYGESAPFEEPFYLGETLETTKVILKNHLLPMILGKEPLSIEEFNHLIKNGIRGNHFARCGVENAYWDLIAKKNKISLKAMIEKKMKNLGVKQEYLASNNYIESGAALGIPEDGRIETLIHQVEESLQEGYRRIKIKIKPGWDVEPLQETRRAVGDHFPLWTDANSSFELDQWETFKAMDAAKCLFHEQPLHYEALLDLKELGERIETPICLDESLISSRVAEFVAKLGISNIWNIKIQRVGGLLEAIKIYKIATDNGIKLWGGTMPESGLGARFLISLASFRGFVFPADVAASEKWYGKGNDLVENTMTDGKIYVPDEPGASFDMTLSHLEALGKKIWESQRGEGHHHHHH	soluble
MGSDKIHHHHHHMFVTELRFECFADTSIEAAEKAINNFLEALRANGQVLGREFAVAFNDGEFRVRLLIPERSSLANRYNSPWVKVALNGLTEAKILAPREKFIGQDINSEASNTHQPSWQLLYTSYVHMCSPLRNGDNLLPIPLYQIPATFNGDHKRMIKWQSEWQACDELQMAAATKAEFAALDEISNTDSDLFRRGWDLRGRIEYLTKIPTYYYLYRVGGESLNAELSRPCPKCGSLEWKLAEPLLDMFQFRCEPCRIVSNLSWDHQ	not soluble
MGSDKIHHHHHHMWIGFDYGSANCAVGIMHEGKISQIPLSANSQYLPSTLYALDRELIAQAVYQGISQDKKSEYAKLRSSQLSRAIQVRHELDLSMDEQTVFVGQAAIDAYLEMPEEGFYVRSPKSFLGANGLREEQVALFEDIVTLMMLHVKGITDNYLADNGLPAATHAVIGRPVNFQSIGGEKSNQQAEAILSLAAKRAGFTQVAFLFEPVAAGMDFEASLEQDSTVLVVDVGGGTTDCSVVRMGPSFAANKQREQDCLGHSGQRVGGNDLDIALAMKGFMPSLGLDSLLKSGKPMPSAPFWQAVAVNDVSAQRDFASLNARKLLDTLVKDAKEPELVKRLKKVQQDQLGYKLVRQAEGAKVTLSDAMQTECDLGFIASDLSVELTQAQFSHFIIEPLAKIEALIQAAVAKADVNPDLVYVTGGTARSPAIYAKIASVYPEAKIVVGDHFGSVTAGLTRWTQKVF	not soluble
MENKMESIEQQVEVLLEQEPQLLPAAMAERLGVTEFDVVAALPQEMVAISPGEQAQTILESLVGFGPVTTIVHSFGSIFEVKAPFPKGKVARGYYNLMGREGELHGHLKLDNVKNIALVSKPFMGRESHYFGFFSECGSNIFKVYLGRDEKRELIAEQVTAFRAMQAELNQLEHHHHHH	not soluble
MSDSVSDAQAQSTPEGAQQKPILRVVKGNPDPTQVATLTALFASMADNAAQQSKQERERNLWGNVEERLQRPTTYNPTAFRNVSFF	not soluble
MPINFHDANNKYTYAQRNAHISWGEMIKGITNIQNKQIIDIGCGGGIYTKELALMGAKSVVGLDFSKEILQAAKENCSGFSNISFIHGDAHSTPYPNDTFDIVISRAVIHHLQDIPTFLREASRILKKNGVLIVQDRTIEDCTIPGSPEHIRGYFFSIFPKLIEIESKRRPKTTTIQKELQKYFLHVFPTQTQWEVRKIHDSVEALLQDLSPRTGRSILYELTDYELSQLLQQVQTALQNVSPIIERDRWTIWSAMKL	not soluble
MSLDKLQRISEAIKSKKKLVVMFSGGVDSTLLAKLAREVLGKNAVALTIDSPVIPRKEIEEAKNLANLIGIRHEFIELNELKSRHLIENPPDRCYLCRKLRDNIVKNWARENGFDVIADGLNFSDLQDYRPGVKASTEDGIWHPFIDFEVTKEEIREYSKKLGLPTWDKPAMACLCSRFPYGFGLNEERVRMVEKAENFLRELGFREVRVRFFPYKTAVVEVGRDEMELLMGKRTDIVLALQKIGFSFVTLDLEGFASGKLNRTIEGMSKEGGSHHHHHH	soluble
MKMKKITAMSMAALMAATMIPSVPVMADGGGKVYYLNFKPEQDEAWQNLAKAYTEETGTDVTVVTAASGQYETTLQSEMAKSDAPTLFQVNGPVGLKNWKDYCYDLKDADITKELTSDAYELKDGDAVAGIAYVIESYGLITNKTLLEKAGYTLDDIKSFDDLKKVADDIQARKDEIGVKGAFTSAGMDGSSDWRFKTHLANLPIYYEYKADGIDDTEAIKGTYLDQYKNVFDLYITDSTCDGSELSAKTADDSRNEFVNGDAVFYQNGSWEYAELAKTYSDDELAMIPIYFGVDDENEGLATGTENYWCVNKNASEEDVQATLDFMNWCVTSEAGTKSMSEDMGFTIPFKTAVAPTNVFVKQDAEYTEAGLTPVSWNFTTMPSEEWKNGLGTALTAYAAGTGDWDAVVSAFVDGWATEKALSE	not soluble
